According to doi:10.1101/2021.12.10.472131 (bioRxiv, 2021):

Target: T1, Par-3 PDZ1-APM (residues 309-987) (UniProt O96782 309-987)
T1 sequence (looked up): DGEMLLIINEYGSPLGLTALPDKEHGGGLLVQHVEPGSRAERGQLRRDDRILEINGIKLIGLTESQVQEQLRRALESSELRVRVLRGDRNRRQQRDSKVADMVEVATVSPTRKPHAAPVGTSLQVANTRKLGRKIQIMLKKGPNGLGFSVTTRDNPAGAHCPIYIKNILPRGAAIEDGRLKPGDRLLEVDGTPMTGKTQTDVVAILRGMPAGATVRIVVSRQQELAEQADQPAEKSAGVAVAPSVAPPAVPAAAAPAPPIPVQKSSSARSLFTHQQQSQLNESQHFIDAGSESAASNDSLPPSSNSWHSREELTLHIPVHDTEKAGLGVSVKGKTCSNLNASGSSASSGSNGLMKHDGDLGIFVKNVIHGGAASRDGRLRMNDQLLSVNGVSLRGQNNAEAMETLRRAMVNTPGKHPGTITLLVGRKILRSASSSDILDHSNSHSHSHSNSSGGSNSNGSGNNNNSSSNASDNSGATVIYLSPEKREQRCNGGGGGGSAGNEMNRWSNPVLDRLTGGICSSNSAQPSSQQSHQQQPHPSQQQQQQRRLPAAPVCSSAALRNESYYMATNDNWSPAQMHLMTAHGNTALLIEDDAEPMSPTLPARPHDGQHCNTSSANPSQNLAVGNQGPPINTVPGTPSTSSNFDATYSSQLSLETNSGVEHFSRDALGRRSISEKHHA
Assay: supernatant depletion assay

B1: his aPKC kinase domain-PBM (residues 259-606) (domain or fragment, UniProt A1Z9X0 259-606, looked up)
chain: YSLNDFELIRVIGRGSYAKVLMVELRRTRRIYAMKVIKKALVTDDEDIDWVQTEKHVFETASNHPFLVGLHSCFQTPSRLFFVIEFVRGGDLMYHMQRQRRLPEEHARFYAAEISLALNFLHEKGIIYRDLKLDNVLLDHEGHIKLTDYGMCKEGIRPGDTTSTFCGTPNYIAPEILRGEDYGFSVDWWALGVLLYEMLAGRSPFDLAGASENPDQNTEDYLFQVILEKTIRIPRSLSVRAASVLKGFLNKNPADRLGCHRESAFMDIVSHPFFKNMDWELLERKQVTPPFKPRLDSDRDLANFPPEFTGEAVQLTPDDDHVIDNIDQSEFEGFEYVNPLLMSLEDCV
binding result: binds
